Experimental data as given in US20180333477A1.

Molecular target: RSV line 19 F protein with I557V, as expressed by vaccine candidate OE4 (respiratory syncytial virus strain line 19) (UniProt P12568)
Assay: MPE8 binding to virus stocks kept at 4 C over 8 days

Pre-F-specific mAb MPE8 (antibody)
pre-F antigen level (MPE8 binding) relative to A2: > 2 fold
